Experimental findings from patent publication US20250223358A1 are described below.

Several values for one entry are separate records, joined by “and”; a condition that tells them apart may be missing. Identical values can stand only once.

The assay concerns the target human CD3 (human) (UniProt P07766). Put plainly: cell-based or functional assay.

Sequence of human CD3 (human) (P07766 23-207, chain 1 of 3): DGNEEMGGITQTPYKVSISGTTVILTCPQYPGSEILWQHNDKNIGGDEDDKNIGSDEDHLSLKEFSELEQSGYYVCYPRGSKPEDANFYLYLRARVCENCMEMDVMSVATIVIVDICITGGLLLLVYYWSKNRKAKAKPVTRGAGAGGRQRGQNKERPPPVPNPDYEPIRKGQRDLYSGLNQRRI
Sequence of human CD3 (human) (P04234 22-171, chain 2 of 3, further chain): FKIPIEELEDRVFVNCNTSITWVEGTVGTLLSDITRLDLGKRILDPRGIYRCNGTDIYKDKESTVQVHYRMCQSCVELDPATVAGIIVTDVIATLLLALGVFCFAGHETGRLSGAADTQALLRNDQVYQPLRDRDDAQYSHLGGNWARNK
Sequence of human CD3 (human) (P09693 23-182, chain 3 of 3, further chain): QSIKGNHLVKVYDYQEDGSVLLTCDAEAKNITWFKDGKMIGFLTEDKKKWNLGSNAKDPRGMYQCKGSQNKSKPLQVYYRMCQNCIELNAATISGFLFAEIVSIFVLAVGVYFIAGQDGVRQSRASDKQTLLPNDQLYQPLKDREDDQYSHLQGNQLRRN

In the case of Isotype control (antibody), the RLU (Jurkat-NFAT-luciferase activation, antibody coated at 50 ug/mL), Plate 1 is 564 RLU and 582 RLU; the RLU (Jurkat-NFAT-luciferase activation, antibody coated at 50 ug/mL), Plate 2 was 386 RLU and 380 RLU; the RLU (Jurkat-NFAT-luciferase activation, antibody coated at 50 ug/mL), Plate 3 was 237 RLU and 231 RLU.
